B1: Ab 14 IgG (antibody, V domains shown)
VH: QVQLQQSGPGLVKPSQTLSLTCAISGDSVSSNSAAWNWIRQSPARGLEWLGRTYYRSRWYNDYAISMKSRITINPDTSKNQFSLQLESVTPEDTAVYYCAREIRGFDYWGQGTLVTVSS
VL: QSVLTQPPSASGSPGQSVTISCTGTSSDVGAYNFVSWYQHHPGKAPKLIIYDFNKRPSGVPDRFSGSKSGNTASLTVSGLQADDEADYYCSSYAGSNNFDVVFGGGTKLTVL
B2: S1-RBD-R3-T1-G1 Ab (Ab_35) (scFv, V domains shown)
VH: EVQLVQSGAEVKKPGESLRISCKASGYSFTSNWIGWVRQMPGKGLEWMGSIFPGDSDTKYSPSFQGQVTISADRSISTAYLQWSGLKASDTAMYYCARESYNAYGSWGQGTLVTVSS
VL: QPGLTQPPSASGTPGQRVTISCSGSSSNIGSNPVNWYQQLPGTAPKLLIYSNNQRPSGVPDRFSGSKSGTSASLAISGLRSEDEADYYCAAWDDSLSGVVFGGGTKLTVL
B3: S1-RBD-R3-E1-E8 Ab (Ab 37) (scFv, V domains shown)
VH: QVQLVQSGAEVKKPGASVKVSCKASGYTFTSYGISWVRQAPGQGLEWMGWISTYNGNTNYAQKLQGRVTMTTDTSTSTAYMEVRSLRSDDTAVYYCARDVFGHFDYWGQGTLVTVSS
VL: NFMLTQPHSVSESPGKTVLISCTRSSGNIATNYVQWYQQRPGSAPTTVIYEDNQRPSGVPDRFSGSIDSSSNSASLTISGLKTEDEADYYCKSYDDGNHVFGGGTKLTVL
B4: S1-R3-T1-H7 (Ab12) (scFv, V domains shown)
VH: EVQLVESGPGVVSPSATLFLTCSVSGGSIRTHSWNWIRQPPGKPLEWIGFIHHSGATNKNPSLKSRVTISSDTSKNEFSLTLTSVTAADTAVYYCARGPGILSYWSRGTLVTVSS
VL: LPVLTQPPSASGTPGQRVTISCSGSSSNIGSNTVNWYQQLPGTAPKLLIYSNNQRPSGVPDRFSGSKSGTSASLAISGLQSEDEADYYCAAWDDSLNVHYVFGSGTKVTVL
B5: Ab 38 (scFv, V domains shown)
VH: QVTLKESGPTLVKPTQTLTLTCTFSGFSLTTSGVSVGWIRQPPGKALEWLALIHWDDDKRYSPSLRSRLTITRDTSKNQVVLTVTDMDPADTGTYYCASFIMTVYAEYFEDWGQGTLVTVSS
VL: EIVLTQSPATLSVSPGERATLSCRASQSVSSNLAWYQQKPGQAPRLLMYDVSTRATGIPARFSGSGSGTEFSLTISSLQSEDFAVYYCQQRGAWPLTFGGGTKVEIK
B6: RBD-R3-E1-F5 Ab (Ab_36) (scFv, V domains shown)
VH: QVQLQQSGPGLVKPSQTLSLTCAIFGDSVTSNSAAWNWIRQSPSRGLEWLGRTYYSSKWYNDYAVSVKSRVTINADTSKNQLSLQLNSVTPEDTAVYYCARGWLRLSFDPWGQGTLVTVSS
VL: NFMLTQPHSVSESPGKTVTISCTGSSGSIASNYVQWLQQRLGSAPTTVIYEDNQRPSGVPDRFSGSIDSSSNSASLTISGLKTEDEADYYCQSYDPNNHGVVFGGGTKLTVL
B7: S1-RBD-R3-T1-F9 Ab (Ab_39) (scFv, V domains shown)
VH: QVTLKESGPTLVKPTQTLTLTCTLSGVSLDTIGMRVSWIRQPPGKALEWLARIDWDDDKFYSTALKTRLTISKDTSKNQVVFTMTSMDPVDTATYYCARSGLLYDLDVWGRGTLVTVSS
VL: QSVVTQPPSVSGAPGQRVTISCTGSDSDIGANFVQWYQQLPGTAPKLLIWRNTNRPSGVPDRFSASKSGTSASLAITGLQAEDEADYFCQSYDSSLSAYVFGGGTKVTVL

Legend:
[1] = target: spike protein on live SARS-CoV-2 (isolate USA-WA1/2020) (SARS-CoV2, UniProt P0DTC2 14-1273); assay: cell-based or functional assay
WT Spike [2] = target: WT Spike (SARS-CoV2, UniProt P0DTC2 16-1213)
WT Spike [3] = target: WT Spike (SARS-CoV-2, UniProt P0DTC2 16-1213)

Row | Binder | Kd (WT Spike [2]) [pM] | other results
1 | B1 | – | shift of the neutralization IC50 of the IgG against the scFv-Fc [1]: 40 fold
2 | B2 | 8.9 | –
3 | B3 | 9 | –
4 | B4 | – | Kd (WT Spike [3]): 8.31 pM
5 | B5 | 7.86 | –
6 | B6 | 9.01 | –
7 | B7 | 2.04 | –

Reference: patent US20230374114A1 (Dana-Farber, published 2023)
